Experimental data reported in publication PMC2621343, “Ca^2+ Extrusion by NCX Is Compromised in Olfactory Sensory Neurons of OMP^−/− Mice” (PLoS ONE, 2009).

T1: recombinant rat OMP (olfactory marker protein) (rat, UniProt P08523 1-163)
T1 construct: olfactory marker protein, rat, recombinant
T1 sequence (looked up): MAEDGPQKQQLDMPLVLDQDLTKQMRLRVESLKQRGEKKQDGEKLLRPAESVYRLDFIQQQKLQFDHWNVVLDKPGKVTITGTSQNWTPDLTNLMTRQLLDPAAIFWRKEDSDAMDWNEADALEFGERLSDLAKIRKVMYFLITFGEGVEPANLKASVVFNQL


Columns and labels:
Details in all cases: both partners purified
Bovine calmodulin [1] = biological target: T2, Bovine calmodulin (bovine, UniProt P62157 1-149); assay: SPR; XIP peptide immobilised on CM5 chip (about 700 RU, carbodiimide chemistry); CaM 10, 25, 50, 100, 250 nM flowed over; Biacore 3000; running buffer NaCl 150 mM, HEPES 10 mM, CaCl2 0.1 mM, pH 7.4; 5 µl/min for 2 minutes; 1:1 Langmuir binding model
T2 construct: calmodulin, bovine, purchased from Sigma; the methods say bovine calmodulin purchased from Sigma; also called CaM; recombinant calmodulin (CaM); source: bought: Sigma

[2] = biological target: T1, recombinant rat OMP (olfactory marker …); assay: SPR; data not shown; peptide immobilised on CM5 chip; OMP flowed over (0-500 nM by the methods), running buffer in the absence or presence of 0.1 mM Ca2+; interaction Ca2+-independent
Bovine calmodulin [3] = biological target: T2, Bovine calmodulin; assay: SPR; Bex1 (50-75) peptide immobilised on CM5 chip; CaM 31.25, 62.5, 125, 250, 500 nM flowed over; running buffer with 0.1 mM Ca2+; steady-state analysis of equilibrium response, nonlinear 1:1 binding isotherm

| Kd (Bovine calmodulin [1]) | Kd [2] | Kd (Bovine calmodulin [3]) | Binder |
| --- | --- | --- | --- |
| 20 ± 6 nM | 700 nM |  | RRLLFYKYVYKRYRAGKQRGM (Immobilised on a CM5 chip by carbodiimide chemistry; also called XIP regulatory-peptide of NCX; source: synthetic peptide, HPLC purified) [XIP peptide (NCX1 251-271)] |
|  | 90000 ± 12000 nM | 280 nM | RGGRRRFRVRQPIAHYRWDLMQRVGE (Immobilised on a CM5 chip by carbodiimide chemistry; also called Bex1 peptide; Bex1 (50–75) peptide; source: synthetic peptide, HPLC purified) [CaM binding peptide of Bex1 (Bex1 50-75)] |
